No end group written: not given here. *: point of attachment. TAMRA = 5-carboxytetramethylrhodamine, CN(C)c1ccc2c(-c3ccc(C(=O)*)cc3C(=O)[O-])c3ccc(=[N+](C)C)cc-3oc2c1

These results are taken from doi:10.1101/756874, “Spontaneous oligomerization of BAK/BAX is suppressed by hetero-dimerization with MCL-1” (bioRxiv, 2019).

The labels stand for the following.
B3: BAK (UniProt:Q16611, residues 16–185, C166S) (domain or fragment, human, UniProt Q16611 16-185, looked up)
chain: EPALPSASEEQVAQDTEEVFRSYVFYRHQQEQEAEGVAAPADPEMVTLPLQPSSTMGQVGRQLAIIGDDINRRYDSEFQTMLQHLQPTAENAYEYFTKIATSLFESGINWGRVVALLGFGYRLALHVYQHGLTGFLGQVTRFVVDFMLHHSIARWIAQRGGWVAALNLGN
notes: human BAK, residues 16-185, without the short disordered N-terminal segment and the C-terminal transmembrane helix; cysteine mutated to serine; Monomeric in buffer, oligomeric in detergent; the same construct in all experiments; Theoretical mass 19217.64 Da; also called 'wild-type' BAK (no cysteines); source: E. coli BL21(DE3), purified (chitin resin, intein self-cleavage with DTT, SEC); not …
B4: MCL-1 (UniProt:Q07820, residues 168–327, C286S) (domain or fragment, human)
chain: GSEEEEDELYRQSLEIISRYLREQATGAKDTKPMGRSGATSRKALETLRRVGDGVQRNHETAFQGMLRKLDIKNEDDVKSLSRVMIHVFSDGVTNWGRIVTLISFGAFVAKHLKTINQESSIEPLAESITDVLVRTKRDWLVKQRGWDGFVEFFHVEDLEGG
notes: extra GS left at the N-terminus after removal of the tag with thrombin; human MCL-1, residues 168-327, without the disordered N-terminus and the C-terminal transmembrane region; Theoretical mass 18409.74 Da; source: E. coli C41(DE3), purified (Ni-NTA, thrombin cleavage, cation exchange, SEC); not shown: His6, N-terminal, cleaved

What all share (details): both partners purified
Assay [1] addresses B4. Briefly: SEC; proteins pre-incubated in detergent (PS20, C12E8 and others, at the multiples of CMC given in the legends); Superdex 200 Increase 10/300 GL, 50 mM sodium phosphate pH 7.0.
In assay [2] the target is B4. Nature of the assay: out-competition dissociation kinetics (fluorescence); pre-formed equimolar complex of MCL-1 and TAMRA-labelled BH3 peptide diluted into 50–400 molar excess of un-labelled PUMABH3; TAMRA fluorescence intensity or polarisation; manual mixing or stopped-flow; buffer without detergent.
The target in assay [3] is B4. Nature of the assay: fluorescence polarisation; kinetics; BAK and MCL-1 pre-incubated in PS20 (20xCMC), then dye-labelled BH3 peptide added; change in TAMRA fluorescence polarisation fitted to a single exponential.
The target in assay [4] is B3. Nature of the assay: SEC; proteins pre-incubated in detergent (PS20, C12E8 and others, at the multiples of CMC given in the legends); Superdex 200 Increase 10/300 GL, 50 mM sodium phosphate pH 7.0. On the technique in general: In gel filtration, larger molecules generally elute earlier.
Assay [5] concerns the target T1, BAX (UniProt:Q07812, residues 1–171, C62S, C126S) (human, UniProt Q07812 1-171, C62S | C126S).
T1 construct: human BAX, residues 1-171, without the C-terminal transmembrane helix; cysteines mutated to serines; Theoretical mass 18933.65 Da; source: E. coli C41(DE3), purified (chitin resin, intein self-cleavage with DTT, SEC); not shown: intein, C-terminal, cleaved
Briefly: native MS; 5 μM total protein (equimolar), 100 mM ammonium acetate pH 7.0, PS20 5xCMC, at least 3 h at room temperature.

Assay [6] concerns the target B4. Nature of the assay: stopped-flow association kinetics + other: out-competition dissociation kinetics; affinities of BH3 peptides for MCL-1 in buffer without detergent (Table 1); how Kd was obtained is not told in the text shown.

T1 sequence (Q07812 1-171 C62S/C126S, one chain of several): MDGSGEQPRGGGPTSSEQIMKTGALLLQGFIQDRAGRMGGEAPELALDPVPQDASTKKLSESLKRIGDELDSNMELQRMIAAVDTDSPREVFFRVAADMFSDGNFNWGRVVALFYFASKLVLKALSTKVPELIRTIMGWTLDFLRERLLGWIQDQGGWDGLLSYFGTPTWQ

B1: BIDBH3, TAMRA-labelled 35-residue peptide (UniProt:P55957, residues 76–110) (peptide, UniProt P55957 76-110, looked up)
peptide: {TAMRA}-SESQEDIIRNIARHLAQVGDSMDRSIPPGLVNGLA
notes: source: synthetic peptide, bought: Biomatik
As for B1, the binding result in assay [1] is reported as “binds”.

B2: PUMABH3, un-labeled, recombinant (UniProt:Q9BXH1, residues 125–161, M144A) (peptide, UniProt Q9BXH1 125-161, looked up)
peptide: GVRGEEEQWAREIGAQLRRAADDLNAQYERRRQEEQQ
notes: human PUMA BH3, residues 125-161; theoretical mass 4442.75 Da is printed; not shown: His6, N-terminal, cleaved; GB1, N-terminal, cleaved
As for B2, in assay [2], the binding result is “binds”. For the molecule B3, the “half-life (displacement of BAK:MCL-1 hetero-dimers by PUMA)” value in assay [3] was around 17 min.

On to B4, for which the binding result in assay [4] and in assay [5] was “binds” each time.

B5: BAKBH3, TAMRA-labelled 35-residue peptide (UniProt:Q16611, residues 64–98, P64A) (peptide, UniProt Q16611 64-98, looked up)
peptide: {TAMRA}-ALQPSSTMGQVGRQLAIIGDDINRRYDSEFQTMLQ
notes: as for B1
B5: the Kd (commonly the concentration at which binding is half-saturated) in assay [6] was 0.08 nM. Further, the koff (usually the rate constant with which the complex falls apart) in assay [2] worked out at 0.00056 s⁻¹.
